Reference: patent publication US20260263521A1, “ANTI-CD200R1 ANTIBODY AND USE THEREOF” (AIMED BIO INC., priority 2023, published 2026)
Numbering of substitutions follows the chain as printed.

T1: mouse CD200R1 protein (Mus musculus, UniProt Q9ES57)
T1 construct: purchased R&D systems 2554-CD
T1 sequence (Q9ES57 26-326): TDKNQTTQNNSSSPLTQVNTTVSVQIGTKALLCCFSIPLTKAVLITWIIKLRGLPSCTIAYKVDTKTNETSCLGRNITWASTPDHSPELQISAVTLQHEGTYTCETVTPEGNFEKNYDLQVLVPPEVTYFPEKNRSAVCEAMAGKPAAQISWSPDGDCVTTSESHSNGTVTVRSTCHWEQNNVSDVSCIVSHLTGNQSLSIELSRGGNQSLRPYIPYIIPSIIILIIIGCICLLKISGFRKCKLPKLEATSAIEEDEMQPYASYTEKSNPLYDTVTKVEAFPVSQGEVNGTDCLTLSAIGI

T2: human CD200R1 (Homo sapiens, UniProt Q8TD46)
T2 sequence (Q8TD46 25-348): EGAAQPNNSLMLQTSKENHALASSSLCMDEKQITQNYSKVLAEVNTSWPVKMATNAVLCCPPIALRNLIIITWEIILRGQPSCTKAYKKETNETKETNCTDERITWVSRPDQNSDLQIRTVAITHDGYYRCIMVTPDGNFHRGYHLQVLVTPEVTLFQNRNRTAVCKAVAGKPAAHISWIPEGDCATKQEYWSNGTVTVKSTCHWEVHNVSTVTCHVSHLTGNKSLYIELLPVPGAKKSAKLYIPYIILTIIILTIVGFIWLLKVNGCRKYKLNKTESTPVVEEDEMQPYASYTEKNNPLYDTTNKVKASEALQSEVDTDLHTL

T3: CD200R1 on U937-CD200R overexpressing cells (Homo sapiens, UniProt Q8TD46)
T3 construct: host or cells: U937 (CRL-1593.2)
T3 sequence (Q8TD46 25-348): T2 sequence (Q8TD46 25-348)

B1: P001009: phage display anti-CD200R1 clone; VH SEQ ID NO: 79, VL SEQ ID NO: 94 (antibody, V domains shown)
VH: EVQLLESGGGLVQPGGSLRLSCAASGFTFSSYDMSWVRQAPGKGLEWVSWISHGGGSIYYADSVKGRFTISRDNSKNTLYLQMNSLRAEDTAVYYCARDAPAYSAPLFDYWGQGTLVTVSS
VL: QSVLTQPPSASGTPGQRVTISCSGSSSNIGNNAVNWYQQLPGTAPKLLIYYDSNRPSGVPDRFSGSKSGTSASLAISGLRSEDEADYYCAAWDDSLSGYVFGGGTKLTVL
B2: P001009v1: P001009 variant, LC S52 and LC S94 substituted with K and R; VH SEQ ID NO: 79 (antibody, V domains shown)
VH: B1 VH
VL: B1 VL with S53K, S95R

Tests used:
mouse CD200R1 protein = biological target: T1, mouse CD200R1 protein; assay: ELISA binding to mouse CD200R1; conditions: concentrations up to 300 nM
Description: (§1) 96-well plates were coated with human CD200R1 (R&D systems, 3414-CD) and mouse CD200R1 protein (R&D systems, 2554-CD) at a concentration of 2 μg/mL at 4° C. for 16 hours and then were blocked with 3% skim milk. The result was treated with the antibodies at concentrations of 300 nM, 60 nM, 12 nM, 2.4 nM, 0.48 nM, 0.096 nM, and 0.0192 nM, and reacted at room temperature for 2 hours.
(§2) The result was washed with PBST and distilled water, the samples were bound with a goat-derived HRP-conjugated anti-human antibody (Invitrogen, 31482, Goat anti-Human IgG F(ab′)2 Secondary Antibody, HRP) for 1 hour at room temperature, and then washed again with PBST and distilled water. Color was developed with a TMB substrate solution (Thermo Scientific, 34029, 1-Step™ TMB-ELISA Ultra Substrate Solution). The color reaction was stopped with stop solution (Invitrogen, SS04, ELISA Stop Solution). The absorbance was measured at an optical density of 450 nm.

human CD200R1 [1] = biological target: T2, human CD200R1; assay: SPR binding kinetics, human CD200R1; conditions: hCD200R1-his captured on anti-His CM5 chip, 1:1 Langmuir fit
Description: The CD200R1-specific binding ability of the antibodies (P001009 wt, P001009 v1, P001009 v2, P001009 v3, P001009 v4) selected in Example 14 was analyzed using surface plasma resonance (SPR). For the experiment, 30 μg/mL of an anti-histidine antibody was conjugated to a CM5 biacore chip via an amine bond while allowing to flow at 10 μl/min (10,000 RU). Then, 0.25 μg/mL of human or cynomolgus CD200R1 with dual His-tags was captured onto the completed chip for 60 seconds, and the binding ability of each antibody was analyzed. All experiments were performed by association of antibodies for 120 seconds and dissociation of antibodies for 600 seconds. The resulting graphs were fitted using a 1:1 Langmuir binding kinetic model (FIG. 16), and the kinetics of each antibody were calculated.

human CD200R1 [2] = biological target: T2, human CD200R1; assay: ELISA binding to human CD200R1; conditions: ELISA, Example 14
Description: as §1, §2

monkey CD200R1 = assay: ELISA binding to monkey CD200R1; conditions: Example 14
Source text: Therefore, the LC D51 and LC D92 sequences were not substituted during the optimization process. However, since LC N30 and LC N31 can play an important role in the specific binding of antibodies as paratopes, the sequences were substituted and optimized. Through rational design, LC S52 and LC S94 were substituted with K and R, respectively, to derive P001009v1, and LC S52 and LC D93 were substituted with K and R, respectively, to derive P001009v2. Further, P001009v3, in which LC N30 was substituted with S, and P001009v4, in which LC N31 was substituted with K, were derived and produced, and the binding ability to human, mouse, and monkey CD200R1 was analyzed by ELISA (FIG. 15). […] Both […] and variants thereof had very weak binding ability to mouse CD200R1 at concentrations up to 300 nM.

[3] = biological target: T3, CD200R1 on U937-CD200R overexpressing cells; assay: Cell binding assay (flow cytometry), U937-CD200R1 cells; type: cell-based; conditions: serial dilution from 100 nM
Description: Binding ability was determined in HH, an endogenous T cell line with high CD200R1 expression, and two additional overexpressing cell lines: U937-CD200R overexpressing cells, generated by intranuclear injection of human CD200R1 CDNA into the monocytic cell line U937 (CRL-1593.2) (Source: UMC Utrecht, the Netherlands) and Jurkat-CD200R overexpressing cells, were also cells engineered using a similar method.
All cell lines were maintained in RPMI 1640 medium supplemented with 10% heat-inactivated FBS and 1% penicillin/streptomycin (P/S) and cell binding was determined in the same manner as in Example 12. Two additional wells were treated with 10 μl of mouse IgG1K (BD, #555751) and 5 μl of commercial CD200R1 antibody (Biolegend, #329308) to determine CD200R1 expression on the cell line surface for cell quality control.
Specific binding ability was determined using P001009 WT and antibody-optimized mutants, P001009v1, P001009v2, P001009v3, and P001009v4. The antibodies were serially diluted 10-fold from a maximum concentration of 100 nM to 10 nM, 1 nM, […], and were added to the pre-seeded cells. […] Using GraphPad Prism software, the EC50 was determined using a nonlinear graph model of log (agonist) vs. response-variable slope, as shown in Table 32.

Row | Molecule | binding ability to mouse CD200R1 (mouse CD200R1 protein) | Ka (human CD200R1 [1]) [M⁻¹ s⁻¹] | binding ability to human CD200R1 compared to parent (human CD200R1 [2]) | binding ability to monkey CD200R1 compared to parent (monkey CD200R1) | binding ability to U937-CD200R1 [3]
1 | B1 | very weak | 2.81e+06 |  |  | 
2 | B2 |  | 4.77e+06 | improved | improved | exhibited binding ability
